For assay [1], the target named is CFP-p7 (Cerulean fluorescent protein fused to the N-terminus of HCV p7) (hepatitis C virus (strain not stated)) (UniProt P27958). The assay can be described thus: FRET or BRET. In general terms: BRET reads energy transfer from a luciferase to a nearby fluorophore.
Assay [2] has as its target CFP-E2TM (CFP in fusion with the transmembrane domain of HCV E2, H strain) (hepatitis C virus (H strain)). The assay can be described thus: FRET or BRET.

The text below walks through data of paper PMC3037360.

“YFP-NS2 (Venus yellow fluorescent protein fused to the N-terminus of HCV NS2) (from UniProt P27958 810-1026) (natural protein)” had a mean lifetime of the donor protein in assay [1] of 2.34 ns. In assay [2], “YFP-E1TM (YFP in fusion with the transmembrane domain of HCV E1, H strain) (domain or fragment)” had a mean lifetime of the donor protein of 2.35 ns.
